One experiment addresses JADE1 PHD finger 1. Nature of the experiment: fluorescence polarisation.
Experiment [1] addresses PHF14 PHD finger 1 (GST-fusion protein). Nature of the experiment: fluorescence polarisation. A general note: In fluorescence polarisation assays a small probe gives low polarisation when free and higher when bound to something large.

Some results are limits rather than exact numbers.

In the experiment with JADE1 PHD finger 1, H3K4norleucine peptide came in with a Kd of more than 100 µM.

Regarding “H3K4me0 peptide (unmodified / wild-type H3 tail peptide)”, the Kd was found to be 32 µM with JADE1 PHD finger 1 and 7 µM in experiment [1]. Substance H3K4me3 peptide returned a dissociation constant Kd with JADE1 PHD finger 1 of more than 100 µM.

In general, Kd refers to a measure of binding affinity in units of concentration. Read a high Kd as a looser complex.
